Measurements: patent publication US20260028390A1, “ALPHA1-ANTITRYPSIN FOR USE IN THE TREATMENT OF DISEASES OR DISORDERS OF THE NERVOUS SYSTEM SUCH AS CHRONIC INFLAMMATORY DEMYELINATING POLYNEUROPATHY” (Ageronix SA, priority 2022, published 2026)

Legend:
[1] = target: T1, Recombinant Human TACE/ADAM17 (Homo sapiens, UniProt P78536); assay: Cell free TACE/ADAM17 activity; format: biochemical
T1 construct: purchased R&D Systems 930-ADB-010
Method: TACE activity and its inhibition by human AAT (AAT) was performed with Recombinant Human TACE/ADAM17 kit (930-ADB and ES003, R&D Systems) in black 96-well immuno plates (437111, ThermoFisher Scientific). The enzymatic activity of TACE/ADAM17 was measured by mixing 0.005 μg of rhTACE with 10 μM of Mca-PLAQAV-Dpa-RSSSR-NH2 fluorogenic peptide substrate III in assay buffer (25 mM Tris, 2.5 μM ZnCl2, 0.005% Brij-35 (w/v), pH 9.0) to a final volume of 100 μl. AAT (Sigma Aldrich, batch A6150) was resuspended in water (vehicle), control TACE/ADAM17 activity was assessed in presence of the vehicle (amount used for AAT 100 μM). AAT was added at different concentration (0, 6.25, 12.5, 25, 50 and 100 μM) to assess its dose-dependent inhibition of TACE/ADAM17. All conditions were performed in triplicates. Activity was measured as relative fluorescent unit (RFU) in a kinetic mode (9 time points over 5 min) with a SpectraMax iD3 Microplate Reader (low PMT gain, is exposition, top read at 1 mm, wavelength: excitation 320 nm, emission 405 nm). Bar graph as percentage of control activity was obtained by averaging the values obtained over the 5 min for each of the condition.
TACE activity is assessed according to the manufacturer's instruction (Recombinant Human TACE/ADAM17 kit, 930-ADB, R&D Systems) in kinetic mode, without or with different AAT concentration. All conditions were done in triplicates and are shown as mean±SD (FIGS. 5A, 5B and 5C).
ADAM-17 activity and its inhibition by human peptide 8 was measured with Recombinant Human ADAM-17 kit (Recombinant Human TACE/ADAM17 Protein, CF: 930-ADB-010 and Mca-PLAQAV-Dpa-RSSSR-NH2 Fluorogenic Peptide Substrate:ES003; R&D Systems) in black 96-well immunoplates (437111; Thermo Fisher Scientific). The enzymatic activity of ADAM-17 was measured by mixing 0.005 μg of rhADAM-17 with 10 μM of Mca-PLAQAV-Dpa-RSSSR-NH2 fluorogenic peptide substrate III in assay buffer (25 mM Tris, 2.5 μM ZnCl2, 0.005% Brij-35 (w/v), pH 9.0) to a final volume of 100 μL. Peptide 8 (Syngene) was dissolved in DMSO and diluted to the desired concentration in assay buffer. Control ADAM-17 activity was assessed in the presence of the assay buffer. […] All conditions were performed in triplicate. Activity was measured as relative fluorescent units (RFU) in endpoint mode (5 min) with a SpectraMax iD3 Microplate Reader (automatic PMT gain, wavelengths: excitation 320 nm, emission 405 nm).

[2] = target: Recombinant Human TACE/ADAM17 Protein (R&D Systems 930-ADB) (human) (UniProt P78536); assay: cell-based or functional assay
Sequence of Recombinant Human TACE/ADAM17 Protein (R&D Systems 930-ADB) (human) (P78536 215-671 limits assumed): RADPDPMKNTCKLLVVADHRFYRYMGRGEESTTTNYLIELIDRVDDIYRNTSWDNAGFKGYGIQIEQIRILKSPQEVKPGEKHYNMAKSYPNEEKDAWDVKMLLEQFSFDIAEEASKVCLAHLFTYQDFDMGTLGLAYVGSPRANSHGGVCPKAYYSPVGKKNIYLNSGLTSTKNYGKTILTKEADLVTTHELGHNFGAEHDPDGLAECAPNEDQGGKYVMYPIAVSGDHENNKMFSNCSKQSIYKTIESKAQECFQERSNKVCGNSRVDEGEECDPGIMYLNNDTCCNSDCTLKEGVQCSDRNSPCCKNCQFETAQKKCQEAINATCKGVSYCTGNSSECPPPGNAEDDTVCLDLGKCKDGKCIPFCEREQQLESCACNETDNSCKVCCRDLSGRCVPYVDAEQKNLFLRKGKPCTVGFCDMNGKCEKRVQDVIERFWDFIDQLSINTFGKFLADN

T1 sequence (P78536 215-671 limits assumed): as above

Ac-YRAHQGE-NH2 [Peptide 8, AAT-related peptide derived from immunoregulatory sites on the surface of AAT]
inhibition of ADAM17 activity ([1]; peptide 8 at concentration of 100 (μM), experiment 2): 36%
inhibition of ADAM17 activity ([1]; peptide 8 at concentration of 200 (μM), experiment 2): 65%
inhibition of ADAM17 activity ([1]; peptide 8 at concentrations up to 50 μM, vs DMSO): No significant inhibition

human alpha1-antitrypsin (AAT) (Sigma Aldrich, batch A6150) (from UniProt P01009 25-418)
IC50 of inhibition of TACE activity, cell-free fluorogenic peptide substrate assay [2]: 15.3 µM
